Here are results for 3 molecules from paper PMC11189558, “Mutations found in cancer patients compromise DNA binding of the winged helix protein STK19”.

For data set [1], the target named is T1, STK19 (31-254) (human, UniProt P49842 31-254). The experiment in a line: EMSA; n = 4; 20 mM HEPES pH 7.4, 100 mM NaCl, 1 mM MgCl2, 1 mg/ml BSA, 2 mM DTT, 5% glycerol; 30 min on ice; native 5% PAGE in 1X TBE. The conditions noted are these: protein: recombinant, tags: GST cleaved, GPLGS left at N-terminus. (In general: Mobility shift assays separate free from complexed probe on a gel.)

Data set [2] addresses T1, STK19 (31-254). The experiment in a line: EMSA; n = 2; 20 mM HEPES pH 7.4, 100 mM NaCl, 1 mM MgCl2, 1 mg/ml BSA, 2 mM DTT, 5% glycerol; 30 min on ice; native 5% PAGE in 1X TBE. The settings on record: protein: recombinant; tags: GST cleaved; GPLGS left at N-terminus; label: 5' IRDye 700 on rU30; blunt.

T1 sequence (P49842 31-254): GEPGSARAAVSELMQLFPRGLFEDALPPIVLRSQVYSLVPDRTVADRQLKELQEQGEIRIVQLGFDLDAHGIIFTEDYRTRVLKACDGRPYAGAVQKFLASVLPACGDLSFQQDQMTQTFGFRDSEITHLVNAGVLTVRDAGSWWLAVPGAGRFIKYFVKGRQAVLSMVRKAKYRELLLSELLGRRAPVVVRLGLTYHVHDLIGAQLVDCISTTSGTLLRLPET

With TTTTTTTTTTTTTTTTTTTTTTTTTTTTTT (ssDNA) [ssDNA dT30], the dissociation constant Kd (commonly a measure of binding affinity in units of concentration) in data set [1] (label: 5' IRDye 700) worked out at 14.1 µM.

B1: dsDNA 30-mer (dT-dA)30 (dsDNA)
DNA 1: TTTTTTTTTTTTTTTTTTTTTTTTTTTTTT
DNA 2: AAAAAAAAAAAAAAAAAAAAAAAAAAAAAA
For B1, the Kd in data set [1] (label: 5' IRDye 700 on dT30, blunt) was 2.2 µM.

B2: dsRNA 30-mer (rU-rA)30 (dsRNA)
RNA 1: UUUUUUUUUUUUUUUUUUUUUUUUUUUUUU
RNA 2: B1 DNA 2
Take B2: the dissociation constant (Kd) in data set [2] is 3.2 µM.
